Measurements as given in US11857697B2, “Compositions and methods for obtaining 3-dimensional lung-like epithelium and related uses thereof” (THE REGENTS OF THE UNIVERSITY OF MICHIGAN, priority 2017, dated 2024).

Tested on: hPSC-derived human lung organoids (HLOs)
Assay: Marker expression (QRT-PCR, immunofluorescence) in HLOs
Type: cell-based
Conditions: 42 days 3F then 26 days FGF7 only
Protocol: Based on results in the mouse showing that FGF7 was permissive for differentiation (FIG. 1), experiments were conducted that hypothesized that removing CHIR-99021 and RA from HLOs grown in 3F media would reduce the number of progenitor cells and increase differentiation of mature cell types within HLO cultures. Foregut spheroids were collected and grown in 3F media for 42 days and were cultured for an additional 26 days in 3F media (control) or media containing FGF7 only (FIG. 10A). […] At the end of the experiment, cultures were collected and assessed for gene and protein expression.
RNA was extracted using the MagMAX-96 Total RNA Isolation System (Life Technologies). RNA quality and concentration was determined on a Nanodrop 2000 spectrophotometer (Thermo Scientific). 100 ng of RNA was used to generate a cDNA library using the SuperScript VILO cDNA master mix kit (Invitrogen) according to manufacturer's instructions. qRT-PCR analysis was conducted using Quantitect SYBR Green Master Mix (Qiagen) on a Step One Plus Real-Time PCR system (Life Technologies). Expression was calculated as a change relative to GAPDH expression using arbitrary units, which were calculated by the following equation: [2^(GAPDH Ct−Gene Ct)]×10,000. A Ct value of 40 or greater was considered not detectable. A list of primer sequences used can be found in Table 1.
Mouse bud, human bud, and HLO tissue was fixed in 4% Paraformaldehyde (Sigma) for 2 hours and rinsed in PBS overnight. Tissue was dehydrated in an alcohol series, with 30 minutes each in 25%, 50%, 75% Methanol:PBS/0.05% Tween-20, followed by 100% Methanol, and then 100% Ethanol. Tissue was processed into paraffin using an automated tissue processor (Leica ASP300). Paraffin blocks were sectioned 5-7 uM thick, and immunohistochemical staining was performed as previously described (Spence et al., 2009). A list of antibodies, antibody information and concentrations used can be found in Table 2. PAS Alcian blue staining was performed using the Newcomer supply Alcian Blue/PAS Stain kit (Newcomer Supply, Inc.) according to manufacturer's instructions.

B1: Recombinant Human Fibroblast Growth Factor 7 (protein, UniProt P21781 32-194, looked up)
Fibroblast growth factor 7: CNDMTPEQMATNVNCSSPERHTRSYDYMEGGDIRVRRLFCRTQWYLRIDKRGKVKGTQEMKNNYNIMEIRTVAVGIVAIKGVESEFYLAMNKEGKLYAKKECNEDCNFKELILENHYNTYASAKWTHNGGEMFVALNQKGIPVRGKKTKKEQKTAHFLPMAIT
notes: Recombinant human growth factor from R&D systems, used at 10 ng/mL unless otherwise noted
- AECI marker HOPX gene expression (versus 3F): increased gene expression
- AECII marker SFTPC protein and mRNA expression (versus 3F): increase in both protein and mRNA expression
- FOXJ1 mRNA expression (QRT-PCR) (versus 3F): increased significantly
- MUC5AC gene expression (QRT-PCR) (versus 3F): significant increase
- P63 mRNA expression (QRT-PCR) (versus 3F): significant increase in mRNA expression
- SOX2 transcript (QRT-PCR) (versus 3F): significant increase
- SOX9 transcript (QRT-PCR) (versus 3F): no change
- Increase of SCGB1A1 mRNA level over 3F controls (not statistically significant): ~100 fold
